# Measurements as given in the MegaScale stability set (Tsuboyama et al. 2023).
# B1: EHEE_rd3_0053 (parent)
# chain: TYTFKVDNKDQAKKAAKWAKKLGLSFQIEKHGDTFKITVQ
# Variants of: B1
# Assay: folding stability dG (cDNA display proteolysis); higher = more stable
# Settings: PBS, room temperature
row,Variant,folding stability dG [kcal/mol]
1,TYTFKVDNKDQATKAAKWAKKLGLSFQIEKHGDTFKITVQ [K13T],2.12
2,TYTFKVDNKDQAAKAAKWAKKLGLSFQIEKHGDTFKITVQ [K13A],2.31
3,TYTFKVDNKDQAYKAAKWAKKLGLSFQIEKHGDTFKITVQ [K13Y],2.32
4,TYTFKVDNKKQAKKAAKWAKKLGLSFQIEKHGDTFKITVQ [D10K],2.74
5,TYTFKVDNKVQAKKAAKWAKKLGLSFQIEKHGDTFKITVQ [D10V],2.52
6,TYTFKVDNKAQAKKAAKWAKKLGLSFQIEKHGDTFKITVQ [D10A],2.83
7,TYTFKVDNKDQAKKAAKWAMKLGLSFQIEKHGDTFKITVQ [K20M],2.34
8,TYTFKVDNKDQAKKAAKWAKKLGLSFQIEKHGDTVKITVQ [F35V],1.16
9,TYTFKVDNKDQAKKAAKWAKKLGLSFQIEKHGDTHKITVQ [F35H],0.715
10,TYTFKVDNKDQAKKAAKWAKKLGLSFQIEKHGDTYKITVQ [F35Y],2.75
11,TYTFKVDNKDQAKFAAKWAKKLGLSFQIEKHGDTFKITVQ [K14F],2.14
12,TYTFKVDNKDQAKNAAKWAKKLGLSFQIEKHGDTFKITVQ [K14N],2
13,TYTFKVDNKDQAKAAAKWAKKLGLSFQIEKHGDTFKITVQ [K14A],2.62
14,TYTFKVDNKDQAKKAAFWAKKLGLSFQIEKHGDTFKITVQ [K17F],2.26
15,TYTFKVDNKDQAKKAAQWAKKLGLSFQIEKHGDTFKITVQ [K17Q],2.57
16,TYTFKVDNKDQAKKAAHWAKKLGLSFQIEKHGDTFKITVQ [K17H],2.21
17,TYTFKVDNKDQAKKAASWAKKLGLSFQIEKHGDTFKITVQ [K17S],2.33
18,TYTFKVDNKDQAKKAARWAKKLGLSFQIEKHGDTFKITVQ [K17R],2.63
19,TYTFKVDNKDQAKKAAMWAKKLGLSFQIEKHGDTFKITVQ [K17M],2.52
20,TYTFKVDNKDQAKKAAKWAKKLGLTFQIEKHGDTFKITVQ [S25T],2.45
21,TYTFKVDNKDQAKKAAKWWKKLGLSFQIEKHGDTFKITVQ [A19W],1.23
22,TYTFKVDNKDQAKKAAKWQKKLGLSFQIEKHGDTFKITVQ [A19Q],-0.184
23,TYTFKVDNKDQAKKAAKWLKKLGLSFQIEKHGDTFKITVQ [A19L],3.38
24,TYTFKVDGKDQAKKAAKWAKKLGLSFQIEKHGDTFKITVQ [N8G],2.35
25,TYTFKVDKKDQAKKAAKWAKKLGLSFQIEKHGDTFKITVQ [N8K],1.62

row,Variant,folding stability dG [kcal/mol]
1,TYTFKVDLKDQAKKAAKWAKKLGLSFQIEKHGDTFKITVQ [N8L],1.43
2,TYIFKVDNKDQAKKAAKWAKKLGLSFQIEKHGDTFKITVQ [T3I],2.43
3,TYKFKVDNKDQAKKAAKWAKKLGLSFQIEKHGDTFKITVQ [T3K],1.46
4,TYRFKVDNKDQAKKAAKWAKKLGLSFQIEKHGDTFKITVQ [T3R],1.6
5,TYTFKVDNKDQAKKAAKWAKKLGLSFQIEKHWDTFKITVQ [G32W],1.31
6,TYTFKVDNKDQAKKAAKWAKKLGLSFQIEKHMDTFKITVQ [G32M],1.7
7,TYTFKVDNKDQAKKTAKWAKKLGLSFQIEKHGDTFKITVQ [A15T],1.85
8,TYTFKVDNKDQAKKQAKWAKKLGLSFQIEKHGDTFKITVQ [A15Q],0.637
9,TYTFKVDNKDQAKKPAKWAKKLGLSFQIEKHGDTFKITVQ [A15P],-0.232
10,TYTFKVDNKDQAKKDAKWAKKLGLSFQIEKHGDTFKITVQ [A15D],-0.785
11,TYTFKVDNKDQAKKAAKWAKKEGLSFQIEKHGDTFKITVQ [L22E],1.46
12,TYTFKVDNKDQAKKAAKWAKKFGLSFQIEKHGDTFKITVQ [L22F],2.08
13,TYTFKVDNKDQAKKAAKWAKKSGLSFQIEKHGDTFKITVQ [L22S],1.56
14,TYTFKVDNKDQAKKAAKWAKKLGLSFLIEKHGDTFKITVQ [Q27L],2.42
15,TYTFKVDNKDQAKKAAKWAKKLGLSFEIEKHGDTFKITVQ [Q27E],2.22
16,TYTFKVDNKDQAKKAAKWAKKLGLSFGIEKHGDTFKITVQ [Q27G],1.53
17,TYTFKVDNKDQAKKAAKWAKKLGLSFRIEKHGDTFKITVQ [Q27R],2.61
18,TYTFKVDNKDQAKKAAKWAKKLGLSFFIEKHGDTFKITVQ [Q27F],2.6
19,TYTFKVDNKDQAKKAAKWAKKLGLSFMIEKHGDTFKITVQ [Q27M],2.54
20,TYTFKVDNKDQAKKAAKWAKKLGLSFQIDKHGDTFKITVQ [E29D],1.93
21,TYTFKVDNKDQAKKAAKWAKKLGLSFQIQKHGDTFKITVQ [E29Q],2.19
22,TYTFKVDNKDQAKKAAKWAKKLTLSFQIEKHGDTFKITVQ [G23T],0.657
23,TYTFKVDNKDQAKKAAKWAKKLPLSFQIEKHGDTFKITVQ [G23P],-0.809
24,TYTFKVDNKDQAKKAAKWAKKLWLSFQIEKHGDTFKITVQ [G23W],0.761
25,TYTFKVDNKDQAKKAAKWAKKLMLSFQIEKHGDTFKITVQ [G23M],1.59

row,Variant,folding stability dG [kcal/mol]
1,TYTFKVDNKDQAKKAAKWAKKLGLSFQIEKHGDTFKIMVQ [T38M],1.83
2,TYTFKVDNKDQAKKAAKWAKKLGLSFQIEKHGDTFKIWVQ [T38W],1.76
3,TYTFKVDNKDQAKKAAKWAKKLGLSFQIEKHGDTFKIEVQ [T38E],1.1
4,TYTFKVDNKDQAKKAAKWAKKLGLSFQIEKHGDTFKIGVQ [T38G],0.192
5,TYTFKVINKDQAKKAAKWAKKLGLSFQIEKHGDTFKITVQ [D7I],2.27
6,TYTFLVDNKDQAKKAAKWAKKLGLSFQIEKHGDTFKITVQ [K5L],3.2
7,TYTFPVDNKDQAKKAAKWAKKLGLSFQIEKHGDTFKITVQ [K5P],1.7
8,TYTFGVDNKDQAKKAAKWAKKLGLSFQIEKHGDTFKITVQ [K5G],1.89
9,TYTFKVDNKDQAKKAAKWAKKLGLSFQIEKHGDTFKVTVQ [I37V],2.35
10,TYTFKVDNKDQAKKAAKWAKKLGLSFQIEKHGDTFKMTVQ [I37M],1.51
11,TYTFKMDNKDQAKKAAKWAKKLGLSFQIEKHGDTFKITVQ [V6M],1.68
12,TYTFKPDNKDQAKKAAKWAKKLGLSFQIEKHGDTFKITVQ [V6P],0.243
13,TYTFKADNKDQAKKAAKWAKKLGLSFQIEKHGDTFKITVQ [V6A],1.62
14,TYTFKVDNKDQAKKAAKWAKKLGLSFQIEKHGDSFKITVQ [T34S],2.61
15,TYTFKVDNKDQAKKAAKWAKKLGLSFQIEKHGDHFKITVQ [T34H],2.92
16,TYTFKVDNKDQAKKAAKWAKKLGLSFQIEKHGDPFKITVQ [T34P],-0.409
17,TYTFKVDNKDQAKKAAKWAKKLGLSFQIEKHGDRFKITVQ [T34R],2.41
18,TYTFKVDNKDQAKKAAKWAKKLGLSFQIEKHGDIFKITVQ [T34I],2.68
19,TYTFKVDNKDQAKKAAKWAKKLGLSFQIEVHGDTFKITVQ [K30V],2.21
20,TYTTKVDNKDQAKKAAKWAKKLGLSFQIEKHGDTFKITVQ [F4T],0.349
21,TYTEKVDNKDQAKKAAKWAKKLGLSFQIEKHGDTFKITVQ [F4E],0.316
22,TYTQKVDNKDQAKKAAKWAKKLGLSFQIEKHGDTFKITVQ [F4Q],0.162
23,TYTLKVDNKDQAKKAAKWAKKLGLSFQIEKHGDTFKITVQ [F4L],1.38
24,TYTFKVDNKDQAKKAAKWAKKLGLSFQHEKHGDTFKITVQ [I28H],0.125
25,TYTFKVDNKDQAKKAAKWAKKLGLSFQREKHGDTFKITVQ [I28R],0.785

row,Variant,folding stability dG [kcal/mol]
1,TYTFKVDNKDQAKKAAKWAKKLGLSFQSEKHGDTFKITVQ [I28S],1.26
2,TYTFKVDNKDQAKKAAKWAKKLGLSFQNEKHGDTFKITVQ [I28N],-0.243
3,TYTFKVDNMDQAKKAAKWAKKLGLSFQIEKHGDTFKITVQ [K9M],2.74
4,TYTFKVDNLDQAKKAAKWAKKLGLSFQIEKHGDTFKITVQ [K9L],2.9
5,TYTFKVDNIDQAKKAAKWAKKLGLSFQIEKHGDTFKITVQ [K9I],2.87
6,TYTFKVDNHDQAKKAAKWAKKLGLSFQIEKHGDTFKITVQ [K9H],2.25
7,TYTFKVDNFDQAKKAAKWAKKLGLSFQIEKHGDTFKITVQ [K9F],2.74
8,TYTFKVDNKDQAKKAAKWAKKLGLSFQIEKHGDTFKITVI [Q40I],2.49
9,TYTFKVDNKDQAKKAAKWAKKLGLSFQIEKHGDTFKITVY [Q40Y],3
10,TYTFKVDNKDQAKKAAKWAKKLGLSFQIEKHGDTFKITVN [Q40N],2.4
11,TYTFKVDNKDQAKKAAKWAKKLGLSFQIEKHGDTFKITVW [Q40W],3.28
12,TYTFKVDNKDQAKKAAKWAKKLGLSFQIEKHGDTFKITVF [Q40F],3.05
13,TYTFKVDNKDQAKKAAKDAKKLGLSFQIEKHGDTFKITVQ [W18D],0.328
14,TYTFKVDNKDQAKKAAKLAKKLGLSFQIEKHGDTFKITVQ [W18L],1.77
15,TYTFKVDNKDQAKKAAKFAKKLGLSFQIEKHGDTFKITVQ [W18F],1.56
16,TYTFKVDNKDQAKKAAKWAKKLGDSFQIEKHGDTFKITVQ [L24D],-0.587
17,TYTFKVDNKDQAKKAAKWAKKLGMSFQIEKHGDTFKITVQ [L24M],2.11
18,WYTFKVDNKDQAKKAAKWAKKLGLSFQIEKHGDTFKITVQ [T1W],2.67
19,GYTFKVDNKDQAKKAAKWAKKLGLSFQIEKHGDTFKITVQ [T1G],2.42
20,EYTFKVDNKDQAKKAAKWAKKLGLSFQIEKHGDTFKITVQ [T1E],2.25
21,KYTFKVDNKDQAKKAAKWAKKLGLSFQIEKHGDTFKITVQ [T1K],2.46
22,QYTFKVDNKDQAKKAAKWAKKLGLSFQIEKHGDTFKITVQ [T1Q],2.34
23,TYTFKVDNKDQAKKAAKWAKKLGLSFQIEKHGDTFLITVQ [K36L],3.18
24,TYTFKVDNKDQAKKAAKWAKKLGLSFQIEKHGDTFIITVQ [K36I],3.28
25,TYTFKVDNKDQAKKAAKWAKSLGLSFQIEKHGDTFKITVQ [K21S],2.43

row,Variant,folding stability dG [kcal/mol]
1,TYTFKVDNKDQAKKAAKWAKQLGLSFQIEKHGDTFKITVQ [K21Q],2.24
2,TYTFKVDNKDQAKKAQKWAKKLGLSFQIEKHGDTFKITVQ [A16Q],2.16
3,TYTFKVDNKDQAKKATKWAKKLGLSFQIEKHGDTFKITVQ [A16T],1.87
4,TYTFKVDNKDQAKKAAKWAKKLGLSFQIEKHGDTFKITGQ [V39G],-0.471
5,TYTFKVDNKDQAKKAAKWAKKLGLSFQIEKHGDTFKITMQ [V39M],1.86
6,TYTFKVDNKDQAKKAAKWAKKLGLSFQIEKHGDTFKITNQ [V39N],-0.981
7,TYTFKVDNKDQAKKAAKWAKKLGLSFQIEKHGDTFKITIQ [V39I],2.82
8,TYTFKVDNKDQAKKAAKWAKKLGLSFQIEKHGDTFKITWQ [V39W],1.56
9,TYTFKVDNKDQAKKAAKWAKKLGLSFQIEKQGDTFKITVQ [H31Q],2.65
10,TYTFKVDNKDQAKKAAKWAKKLGLSFQIEKTGDTFKITVQ [H31T],2.66
11,TYTFKVDNKDQAKKAAKWAKKLGLSFQIEKNGDTFKITVQ [H31N],2.42
12,TYTFKVDNKDQAKKAAKWAKKLGLSFQIEKMGDTFKITVQ [H31M],2.68
13,TYTFKVDNKDQWKKAAKWAKKLGLSFQIEKHGDTFKITVQ [A12W],1.29
14,TYTFKVDNKDQEKKAAKWAKKLGLSFQIEKHGDTFKITVQ [A12E],0.263
15,TYTFKVDNKDQYKKAAKWAKKLGLSFQIEKHGDTFKITVQ [A12Y],1.31
16,TYTFKVDNKDQCKKAAKWAKKLGLSFQIEKHGDTFKITVQ [A12C],3.23
17,TYTFKVDNKDQAKKAAKWAKKLGLSQQIEKHGDTFKITVQ [F26Q],-0.496
18,TYTFKVDNKDQAKKAAKWAKKLGLSLQIEKHGDTFKITVQ [F26L],2.13
19,TYTFKVDNKDQAKKAAKWAKKLGLSAQIEKHGDTFKITVQ [F26A],1.81
20,THTFKVDNKDQAKKAAKWAKKLGLSFQIEKHGDTFKITVQ [Y2H],1.95
21,TNTFKVDNKDQAKKAAKWAKKLGLSFQIEKHGDTFKITVQ [Y2N],0.999
22,TWTFKVDNKDQAKKAAKWAKKLGLSFQIEKHGDTFKITVQ [Y2W],2.7
23,TQTFKVDNKDQAKKAAKWAKKLGLSFQIEKHGDTFKITVQ [Y2Q],1.17
24,TVTFKVDNKDQAKKAAKWAKKLGLSFQIEKHGDTFKITVQ [Y2V],2.01
25,TFTFKVDNKDQAKKAAKWAKKLGLSFQIEKHGDTFKITVQ [Y2F],2.57
